# Reference: paper doi:10.1101/2021.01.30.428938
# “And” between values parts separate entries of the source, which are not always exact repeats. Equal entries are not always repeated.
# How the values were obtained:
# [1] = biological target: Theileria parva schizont antigen Tp2, full-length native, bacterially expressed with His-tag (Theileria parva (Muguga)); test: SEC-MALS
# [2] = biological target: Theileria parva schizont antigen Tp2, full-length native, bacterially expressed with His-tag (Theileria parva (Muguga)); test: SEC
substance,measurement,setting,value
"Theileria parva schizont antigen Tp2, full-length native, bacterially expressed with His-tag (natural protein)",stoichiometry N,[1],2
same,stoichiometry N,[2],4 and 2
